Experimental data taken from paper PMC2675908, “Direct Observation of ATP-Induced Conformational Changes in Single P2X4 Receptors” (PLOS Biology, 2009).

Target: the molecule itself
Assay: native gel or EMSA; native PAGE, 4%-13% acrylamide gradient gel, sample buffer with 1% deoxycholate, silver staining; purified P2X4R

B1: rat P2X4 receptor (receptor, UniProt P51577 1-388, looked up)
chain: MAGCCSVLGSFLFEYDTPRIVLIRSRKVGLMNRAVQLLILAYVIGWVFVWEKGYQETDSVVSSVTTKAKGVAVTNTSQLGFRIWDVADYVIPAQEENSLFIMTNMIVTVNQTQSTCPEIPDKTSICNSDADCTPGSVDTHSSGVATGRCVPFNESVKTCEVAAWCPVENDVGVPTPAFLKAAENFTLLVKNNIWYPKFNFSKRNILPNITTSYLKSCIYNAQTDPFCPIFRLGTIVEDAGHSFQEMAVEGGIMGIQIKWDCNLDRAASLCLPRYSFRRLDTRDLEHNVSPGYNFRFAKYYRDLAGKEQRTLTKAYGIRFDIIVFGKAGKFDIIPTMINVGSGLALLGVATVLCDVIVLYCMKKKYYYRDKKYKYVEDYEQGLSGEMNQ
notes: P2X4 receptor (P2X purinoceptor 4), rat; cDNA encoding rat P2X4R subcloned into pcDNA3.1; Homotrimer by native PAGE (about 150 kDa; monomer about 50 kDa in SDS-PAGE) and by AFM; No tag is mentioned; 1321N1 cells are said not to express P2XRs of their own; also called P2X4Rs; source: human 1321N1 astrocytoma cells, stably transfected (pcDNA3.1)
stoichiometry N: 3
